Data: PMC11439726

Tests used:
[1] = target: recombinant human FcRn protein (neonatal Fc receptor) (human) (UniProt P55899)
[2] = target: recombinant human FcRn protein (neonatal Fc receptor) (human) (UniProt P55899); remark: listed apart in the source

Row | Substance | reduction of basal-to-apical transcytosis of CR3022-LS across WD-HAE cultures with excess IVIG as competitor [1] [%] | decrease of basal-to-apical transcytosis of CR3022 (400 µg) across WD-HAE cultures with 10-fold excess IVIG (4 mg) as competitor [2] [%]
1 | CR3022-LS (CR3022 with Fc containing the LS mutation) (antibody) | 20 | 
2 | CR3022 (human recombinant monoclonal antibody, wildtype IgG1-Fc) |  | 50
